Reference: patent US7888315B2, “Use of aspartic proteases in cosmetics and therapeutics” (L'Oreal, priority 2002, dated 2011)
[ ]: non-standard residue; d: D form. Nle = CCCC[C@H](N)C(=O)O

Columns and labels:
corneodesmosin = experiment: Degradation of corneodesmosin extracted from human stratum corneum; type: biochemical; conditions: for % Residual corneodesmosin T24 h/T0*100 / Standardized corneodesmosin T24 h / Standardized corneodesmosin T0: stratum corneum acetone powder; for % Residual corneodesmosin T24 h/T0*100 / Standardized corneodesmosin T24 h: acetate buffer pH 5, 30° C.; for Standardized corneodesmosin T0: acetate buffer pH 5, T0
Experimental: Corneodesmosin is a marker for desquamation since it is involved in corneocyte cohesion at corneodesmosomes. The more the protein is degraded, the more significant is the detachment of the corneocytes. Corneodesmosin degradation is therefore a key step of desquamation.
The test used in this study therefore consists in following this degradation in the presence of the test substance.
Acetone powders are prepared using stripping varnish (Mehul B, Bernard D, Simonetti L, Bernard M A, Schmidt R: Identification and cloning of a new calmodulin-like protein from human epidermis. J Biol Chem 275: […], 2000), taken from the lower parts of the legs of volunteers with dry skin. Aliquot fractions of 2 mg of stratum corneum powder are introduced separately into Eppendorf tubes, and then immersed in the test solutions in a proportion of 100 μl/mg. The solutions are prepared in acetate buffer, pH 5. A control without protease is prepared in parallel in order to evaluate the natural degradation of corneodesmosin. For each test, three samples are prepared. The samples, trials and control, are incubated at 30° C., with stirring for 24 hours.
The proteins are extracted with complete Laemmli buffer. They are assayed by the Bradford method (Bio-Rad® kit). The concentration of each sample is adjusted so as to allow comparison of the samples. The polypeptides are separated by SDS-PAGE electrophoresis on a 15% acrylamide gel, and then transferred onto a PVDF membrane. Immunodetection with a solution of anti-corneodesmosin antibody used at 1/12 500 and of secondary antibody coupled to peroxidase makes it possible to visualize the corneodesmosin. The bands detected by chemiluminescence are quantified using the Quantity One® program from the company Biorad. The membranes are then stained with amido-black, and then scanned. In addition, the keratins, which are major proteins of corneocyte extracts, are quantified in order to verify the adjustment to 0.6 mg/ml of all the samples.
A positive control for degradation (+) is prepared using 5 mM of EDTA. A trial is carried out in the presence of 60 μg of activated SASPase. A negative control represents the natural degradation of corneodesmosin under the operating conditions of the test.

[1] = target: T1, activated SASPase (SEQ ID NO: 6) (Homo sapiens, UniProt Q53RT3); experiment: Effect of retropepsin inhibitors on the caseinolytic activity of the activated SASPase; type: biochemical; conditions: activated SASPase in 0.1 M acetate buffer pH 5.5 with DMSO, pre-incubated 1 hour at 4° C., Enzchek casein, 37° C., FIG. 3
T1 construct: GST (N, cleaved yes); made in house; host or cells: E. coli BL21 (DE3)
T1 sequence (Q53RT3 189-326): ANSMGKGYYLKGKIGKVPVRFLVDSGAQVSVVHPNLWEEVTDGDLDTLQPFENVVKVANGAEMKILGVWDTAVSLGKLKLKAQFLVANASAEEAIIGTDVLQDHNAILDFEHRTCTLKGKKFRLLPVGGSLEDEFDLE
Experimental: 10 μl of activated SASPase (SEQ ID NO: 6) that have been autoactivated (approximately 3 mg/ml) are added to 200 μl of 0.1 M acetate buffer, pH 5.5, containing 20 μl of DMSO with retropepsin inhibitors. A control assay is carried out under the same conditions in the absence of inhibitor.
The mixture is pre-incubated at 4° C. for 1 hour, and the substrate, casein, sold under the name Enzchek® by the company Molecular Probes, is then added in sufficient amount to obtain the concentration recommended by the supplier, the solutions having been heated to 37° C. beforehand.
The casein hydrolysis is followed by measuring the fluorescence on a Biolumin® plate reader sold by the company Molecular Probes, using the excitation/emission couple: 485/535 nm.

SASPase (GST-C27) = target: T2, SASPase (GST-C27) (Homo sapiens, UniProt Q53RT3); experiment: Hydrolysis of quenched Abz/(NO2)Tyr peptide substrates by the SASPase; type: biochemical
T2 construct: made in house; host or cells: E. coli BL21 (DE3)
T2 sequence (Q53RT3 85-343): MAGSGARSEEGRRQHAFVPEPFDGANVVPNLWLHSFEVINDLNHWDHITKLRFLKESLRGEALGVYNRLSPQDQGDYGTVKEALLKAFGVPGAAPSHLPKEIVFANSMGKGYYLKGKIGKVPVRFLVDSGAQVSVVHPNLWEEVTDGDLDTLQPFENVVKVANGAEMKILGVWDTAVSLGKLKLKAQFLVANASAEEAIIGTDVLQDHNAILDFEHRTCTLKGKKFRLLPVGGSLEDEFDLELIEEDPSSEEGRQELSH
Experimental: The peptide substrate considered (SEQ ID NO: 31, SEQ ID NO: 32, SEQ ID NO: 33, SEQ ID NO: 34 or SEQ ID NO: 35) quenched using the Abz/(NO2)Tyr fluorescent system is used at 100 μM in DMSO, and then 10 μl of this stock substrate solution are added per 100 μl of 0.1 M acetate buffer, pH 5.00.
10 μg of GST-C27 (fusion protein at 1 mg/ml in PBS) are added. Incubation is carried out at 37° C. The fluorescence is read at 340/450 nm on a Biolumin plate reader at various times.

[2] = tested on: oxidized beta-chain of insulin; experiment: Hydrolysis of the oxidized beta-chain of insulin followed by HPLC; type: biochemical
Experimental: The oxidized beta-chain of insulin (Sigma) is used as substrate. The concentration is 50 μg in 1.5 ml of 0.1 M acetate buffer, pH 5.0. 50 μl of 12 kD SASPase (SEQ ID NO: 6) (approximately 1 mg/ml) purified by gel filtration are added so as to initialize the hydrolysis. Controls without enzyme or without substrate are used. Over time (1 h to 24 h at 37° C.), HPLCs are performed in order to follow the hydrolysis. The peaks that appear rapidly correspond to the main hydrolysis sites and those that only appear after 24 h correspond to the secondary sites. The peaks are collected after they have been fractionated, and are N-terminal sequences (EDMAN sequencing, Pasteur Institute).

casein = experiment: Influence of pH on the proteolytic activity of SASPase (Enzchek casein substrate); type: biochemical
Experimental: 10 μl of GST-SASPase Δ 1-84 fusion proteins (approximately 3 mg/ml) obtained in example II are incubated in 200 μl of 0.1 M acetate buffer, adjusted to various pH values in the presence of the casein substrate sold under the name Enzchek® by the company Molecular Probes, and used at the concentrations recommended by the supplier.
Each assay is repeated three times.
After incubation at 37° C. for 20 hours, the fluorescence is measured on a plate reader sold under the name Biolumin® by the company Molecular Probes, using the excitation/emission couple: 485/535 nm.

[3] = tested on: SASPase C27 (autocleavage); experiment: Autocleavage of the SASPase C27 and of its mutants (SDS-PAGE); type: biochemical, human; conditions: fusion protein in 1 M acetate buffer pH 4.5, 37° C., SDS-PAGE over time
Experimental: The SASPase sequence SEQ ID NO: 5 is modified at aspartic acid No. 212, i.e. on its potential active site. To do this, two oligonucleotides are synthesized such that amino acid 212 is substituted either to alanine (mutant A/D), or to glutamic acid (mutant E/D).
The mutated recombinant proteins are produced according to the same protocol as for the wild-type form, SASPase C27; (SEQ ID NO: 4).
Each recombinant protein produced in fusion protein form is then incubated in a 1 M acetate buffer, pH 4.5, at 37° C. Samples are taken over time and are analyzed by SDS-PAGE.

O=C(O)CN(CCN(CC(=O)O)CC(=O)O)CC(=O)O [+control, EDTA, reference compound]
% Residual corneodesmosin T24 h/T0*100 (corneodesmosin; 24 hours): 84% | Standardized corneodesmosin T24 h (corneodesmosin; 24 hours): 26685 | Standardized corneodesmosin T0 (corneodesmosin): 31657

Ac-Leu-Leu-Met-aldehyde [RP2]
kinetics for casein hydrolysis compared with the control [1]: lower than the control

Ac-Leu-Leu-Nle-aldehyde (Ac-Leu-Leu-[Nle]-aldehyde) [RP3]
kinetics for casein hydrolysis compared with the control [1]: significantly higher

Ac-Leu-Val-Phe-aldehyde [RP1]
kinetics for casein hydrolysis compared with the control [1]: lower than the control

EFDLDLIEED (listed as Homo sapiens) [SEQ ID NO: 32]
effect of the peptide substrate on the SASPase (SASPase (GST-C27)): activator effect

EFDLELIEED (listed as Homo sapiens) [SEQ ID NO: 31]
effect of the peptide substrate on the SASPase (SASPase (GST-C27)): activator effect | hydrolysis of the peptide substrate by the SASPase (SASPase (GST-C27); 0.1 M acetate buffer pH 5.00, 10 μg GST-C27, 37° C., fluorescence 340/450 nm, FIG. 5): effectively hydrolyzed

B1: activated SASPase: truncated 12 kD activated form of the aspartic acid protease SASPase, sequence SEQ ID NO: 6 (protein, listed as Homo Sapiens)
chain: ANSMGKGYYLKGKIGKVPVRFLVDSGAQVSVVHPNLWEEVTDGDLDTLQPFENVVKVANGAEMKILGVWDTAVSLGKLKLKAQFLVANASAEEAIIGTDVLQDHNAILDFEHRTCTLKGKKFRLLPVGGSLEDEFDLE
insulin-degrading activity ([2]; 0.1 M acetate buffer pH 5.0, 37° C., 1 h to 24 h): capable of degrading insulin | percentage of residual corneodesmosin compared with the controls (corneodesmosin; 60 μg of activated SASPase, 24 hours): significant decrease | % Residual corneodesmosin T24 h/T0*100 (corneodesmosin; 24 hours): 75% | Standardized corneodesmosin T24 h (corneodesmosin; 24 hours): 24918 | Standardized corneodesmosin T0 (corneodesmosin): 33107

B2: SASPase: novel aspartic acid protease from human keratinocytes, sequence SEQ ID NO: 5; in b201 and b239 the word covers the form tested (protein, listed as Homo Sapiens)
chain: MGSPGASLGIKKALQSEQATALPASAPAVSQPTAPAPSCLPKAGQVIPTLLREAPFSSVIAPTLLCGFLFLAWVAAEVPEESSRMAGSGARSEEGRRQHAFVPEPFDGANVVPNLWLHSFEVINDLNHWDHITKLRFLKESLRGEALGVYNRLSPQDQGDYGTVKEALLKAFGVPGAAPSHLPKEIVFANSMGKGYYLKGKIGKVPVRFLVDSGAQVSVVHPNLWEEVTDGDLDTLQPFENVVKVANGAEMKILGVWDTAVSLGKLKLKAQFLVANASAEEAIIGTDVLQDHNAILDFEHRTCTLKGKKFRLLPVGGSLEDEFDLELIEEDPSSEEGRQELSH
activity in phosphate buffer (casein; 0.1 M phosphate buffer of pH 6 to 7.5, assays not shown): only a weak residual activity | optimal pH of enzymatic activity (casein; GST-SASPase Δ 1-84 fusion protein, 0.1 M acetate buffer, 37° C., 20 hours, FIG. 2): 5 pH | insulin-degrading activity after heat denaturation ([2]; heat denaturation 95° C., 10 min): abolishes its insulin-degrading activity

B3: GST-SASPase C27: recombinant fusion protein of glutathione S-transferase with truncated SASPase Δ 1-84 (SEQ ID NO: 4) (protein, listed as Homo Sapiens)
chain: MAGSGARSEEGRRQHAFVPEPFDGANVVPNLWLHSFEVINDLNHWDHITKLRFLKESLRGEALGVYNRLSPQDQGDYGTVKEALLKAFGVPGAAPSHLPKEIVFANSMGKGYYLKGKIGKVPVRFLVDSGAQVSVVHPNLWEEVTDGDLDTLQPFENVVKVANGAEMKILGVWDTAVSLGKLKLKAQFLVANASAEEAIIGTDVLQDHNAILDFEHRTCTLKGKKFRLLPVGGSLEDEFDLELIEEDPSSEEGRQELSH
autocleavage / autoactivation [3]: autocleavage

B4: (A/D): SASPase mutant, aspartic acid No. 212 substituted to alanine (protein, UniProt Q53RT3 191-326, looked up, variant D212A)
Retroviral-like aspartic …: SMGKGYYLKGKIGKVPVRFLVASGAQVSVVHPNLWEEVTDGDLDTLQPFENVVKVANGAEMKILGVWDTAVSLGKLKLKAQFLVANASAEEAIIGTDVLQDHNAILDFEHRTCTLKGKKFRLLPVGGSLEDEFDLE
autocleavage / autoactivation [3]: do not autoactivate

B5: (E/D): SASPase mutant, aspartic acid No. 212 substituted to glutamic acid (protein, UniProt Q53RT3 191-326, looked up, variant D212E)
Retroviral-like aspartic …: SMGKGYYLKGKIGKVPVRFLVESGAQVSVVHPNLWEEVTDGDLDTLQPFENVVKVANGAEMKILGVWDTAVSLGKLKLKAQFLVANASAEEAIIGTDVLQDHNAILDFEHRTCTLKGKKFRLLPVGGSLEDEFDLE
autocleavage / autoactivation [3]: do not autoactivate
